Test results from patent publication US9539289B2, “Immunostimulatory compositions and methods of manufacture” (APIMED MEDICAL HONEY LIMITED, priority 2012, dated 2017).

How the values were obtained:
[1] = biological target: T1, apisimin (Apis mellifera, UniProt Q8ISL8); experiment: Dot blot assay of apisimin self binding versus insulin and bovine albumin (Example 1, FIG. 1); details: darker colour means greater binding
T1 sequence (Q8ISL8 25-78): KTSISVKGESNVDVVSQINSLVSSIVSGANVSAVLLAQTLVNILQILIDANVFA
Description: FIG. 1 illustrates the results of a dot blot assay to test the self binding properties of apisimin against two other proteins not know to be self binding being insulin and bovine albumin. 1=apisimin, 2=insulin, 3=bovine albumin. The darker the colour the greater the degree of binding;
An experiment was conducted to confirm the self-binding nature of apisimin versus other peptides being insulin and bovine albumin.

[2] = test system: monocyte cell line; experiment: TNF-α response of a monocyte cell culture after 4 hours of treatment (Examples 3, 5-8); assay type: cell-based; details: 100 ng/ml dose
Description: The immunostimulatory effect was then tested using a variety of samples. Prior to the trial a monocyte cell culture was produced in order to eliminate any natural variation errors. The monocyte culture was then stimulated using a variety of agents and TNF-α concentration measured after 4 hours of treatment with the various reagents.
LPS was used as a positive control being a known and strongly significant stimulant. Cells alone were used as a negative control.
The immunostimulatory effect was tested further using a variety of samples including royal jelly. Prior to the trial a monocyte cell culture was produced in order to eliminate any natural variation errors. The monocyte culture was then stimulated using a variety of agents and TNF-α concentration measured after 4 hours of treatment with the various reagents.
The immunostimulatory effect was tested further using a variety of honey derived AGP compounds and apisimin. […] The monocyte culture was then stimulated using a variety of agents and TNF-α concentration measured after 4 hours of treatment with the various reagents.
The immunostimulatory effect was tested further using a honey derived AGP compound, apisimin and Polymyxin B acting as an LPS inhibitor. […] The monocyte culture was then stimulated using a variety of agents and TNF-α concentration measured after 4 hours of treatment with the various reagents. […]

| Substance | self binding (dot blot colour) [1] | TNF-α response [2] |
| --- | --- | --- |
| albumin: bovine albumin, comparison protein not known to be self binding | weak or not self binding |  |
| insulin: comparison protein not known to be self binding | weak or not self binding |  |
| lipopolysaccharide [LPS] |  | approximately 1700 μg/ml |
